Experimental data from article PMC2860547.

Molecular target: Snf1 protein tagged with 3 copies of the HA epitope (wild type) (S. cerevisiae) (UniProt P06782)
Experiment: co-IP

UniProt P06782, sequence (P06782 whole entry): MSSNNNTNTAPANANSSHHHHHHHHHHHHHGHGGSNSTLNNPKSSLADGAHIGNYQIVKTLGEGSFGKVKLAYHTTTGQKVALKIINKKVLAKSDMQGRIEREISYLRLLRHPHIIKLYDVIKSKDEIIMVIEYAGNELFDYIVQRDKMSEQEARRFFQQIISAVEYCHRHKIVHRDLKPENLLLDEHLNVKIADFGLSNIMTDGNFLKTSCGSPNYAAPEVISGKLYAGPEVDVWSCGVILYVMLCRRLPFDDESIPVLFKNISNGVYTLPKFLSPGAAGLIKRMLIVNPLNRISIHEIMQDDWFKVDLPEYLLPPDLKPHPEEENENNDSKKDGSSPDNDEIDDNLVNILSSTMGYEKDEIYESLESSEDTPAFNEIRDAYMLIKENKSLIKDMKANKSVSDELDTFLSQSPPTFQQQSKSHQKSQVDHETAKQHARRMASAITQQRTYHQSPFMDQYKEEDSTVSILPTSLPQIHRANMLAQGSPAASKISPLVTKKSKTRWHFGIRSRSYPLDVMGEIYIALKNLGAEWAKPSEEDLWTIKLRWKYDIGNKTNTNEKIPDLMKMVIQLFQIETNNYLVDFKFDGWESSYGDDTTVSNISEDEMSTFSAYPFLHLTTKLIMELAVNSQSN

Substance “Reg1-IF (I466M, F468A) (from UniProt Q00816 1-1014) (natural protein)” has a fold reduction of associated Reg1 against wild type Reg1 of 30 fold.
